pIC50, pKd: −log10 of the molar value.
Experiments:
[1] = target: HLA-A*24:02; assay: IEDB peptide-MHC binding, purified MHC/competitive/fluorescence; ≥ and ≤ were set here for values at or beyond the usual limits of such assays; details: source organism: Zaire ebolavirus
[2] = target: HLA-A*03:01; assay: as above; details: source organism: Zaire ebolavirus
[3] = target: HLA-A*11:01; assay: as above; details: source organism: Zaire ebolavirus
[4] = target: HLA-A*01:01; assay: as above; details: source organism: Zaire ebolavirus
[5] = target: HLA-A*29:02; assay: IEDB peptide-MHC binding, purified MHC/competitive/fluorescence; filed as Kd, often an IC50 or EC50 that approximates it; ≥ and ≤ were set here for values at or beyond the usual limits of such assays
[6] = target: HLA-B*51:01; assay: as above
[7] = target: HLA-B*15:17; assay: as above
[8] = target: HLA-A*02:12; assay: as above
[9] = target: HLA-A*03:01; assay: as above
[10] = target: HLA-A*69:01; assay: as above
[11] = target: HLA-A*02:19; assay: as above
[12] = target: HLA-B*15:01; assay: as above
[13] = target: HLA-A*26:01; assay: as above
[14] = target: HLA-B*15:42; assay: as above; details: source organism: Vibrio vulnificus CMCP6
[15] = target: HLA-A*23:01; assay: as above
[16] = target: HLA-A*24:03; assay: as above
[17] = target: HLA-A*02:11; assay: as above
[18] = target: HLA-A*02:16; assay: as above
[19] = target: HLA-B*45:06; assay: as above; details: source organism: Vibrio vulnificus CMCP6
[20] = target: HLA-B*46:01; assay: as above
[21] = target: HLA-B*57:01; assay: as above
[22] = target: HLA-A*68:02; assay: as above; details: source organism: Vibrio vulnificus CMCP6
[23] = target: HLA-A*02:03; assay: as above
[24] = target: HLA-B*39:01; assay: as above
[25] = target: HLA-B*18:01; assay: as above
[26] = target: HLA-B*83:01; assay: as above; details: source organism: Vibrio vulnificus CMCP6
[27] = target: HLA-B*27:03; assay: as above
[28] = target: HLA-A*02:01; assay: as above
[29] = target: HLA-A*26:02; assay: as above; details: source organism: Human immunodeficiency virus 1
[30] = target: HLA-A*02:06; assay: as above; details: source organism: Human immunodeficiency virus 1
[31] = target: HLA-C*05:01; assay: IEDB peptide-MHC binding, purified MHC/direct/fluorescence; filed as Kd, often an IC50 or EC50 that approximates it; ≥ and ≤ were set here for values at or beyond the usual limits of such assays; details: source organism: Salmonella enterica subsp. enterica serovar Typhi str. CT18
[32] = source organism: Vibrio vulnificus CMCP6
[33] = source organism: Human immunodeficiency virus 1
[34] = source organism: Salmonella enterica subsp. enterica serovar Typhi

ATDVPSATK showed a pIC50 [1] of 4.19, a pIC50 [2] of 4.54 and a pIC50 [3] of 5.67. The pIC50 [4] was 4.92.
LEMNDAPTA was tested, and the pKd [5, 32] was at most 4.70, the pKd [6, 32] was at most 4.70 and the pKd [7, 32] was at most 4.70. For the same sequence, the pKd [8, 32] was at most 4.70, the pKd [9, 32] was at most 4.70 and the pKd [10, 32] was at most 4.70. It also gave a pKd [11, 32] of at most 4.70, a pKd [12, 32] of at most 4.70 and a pKd [13, 32] of at most 4.70. It also gave a pKd [14] of at most 5.30, a pKd [15, 32] of at most 4.70 and a pKd [16, 32] of at most 4.70. It also gave a pKd [17, 32] of at most 4.70, a pKd [18, 32] of at most 4.70 and a pKd [19] of at most 5.30. For the same sequence, the pKd [20, 32] was at most 4.70, the pKd [21, 32] was at most 4.70 and the pKd [22] was at most 4.70. For the same sequence, the pKd [23, 32] was at most 4.70, the pKd [24, 32] was at most 4.70 and the pKd [25, 32] was 6.62. The pKd [26] was at most 5.30, the pKd [27, 32] was at most 4.70 and the pKd [28, 32] was at most 4.70.
For LFNTIATLY, the pKd [7, 33] was 5.60, the pKd [29] was at most 4.70 and the pKd [30] was 5.89. The pKd [23, 33] was at most 4.70 and the pKd [28, 33] was 5.97.
In the case of NTDEIPELI, the pKd [31] was 6.94, the pKd [5, 34] was at most 4.70 and the pKd [6, 34] was at most 4.70. It also gave a pKd [7, 34] of at most 4.70, a pKd [8, 34] of at most 4.70 and a pKd [9, 34] of at most 4.70. For the same sequence, the pKd [11, 34] was at most 4.70, the pKd [12, 34] was at most 4.70 and the pKd [13, 34] was at most 4.70. It also gave a pKd [15, 34] of at most 4.70, a pKd [16, 34] of at most 4.70 and a pKd [17, 34] of 8.51. For the same sequence, the pKd [18, 34] was at most 4.70, the pKd [20, 34] was at most 4.70 and the pKd [21, 34] was at most 4.70. The pKd [23, 34] was at most 4.70, the pKd [24, 34] was at most 4.70 and the pKd [25, 34] was at most 4.70. The pKd [27, 34] was at most 4.70 and the pKd [28, 34] was at most 4.70.
For VVPYEPPEV, the pKd ([8]; source organism: Homo sapiens) was 6.79, the pKd ([10]; source organism: Homo sapiens) was at most 4.70 and the pKd ([17]; source organism: Homo sapiens) was 8.03. For the same sequence, the pKd ([23]; source organism: Homo sapiens) was 5.95 and the pKd ([28]; source organism: Homo sapiens) was 7.58.

— the Immune Epitope Database (IEDB)
